According to patent publication US20230105029A1 (CHIA TAI TIANQING PHARMACEUTICAL GROUP, published 2023):
Where “and” joins values, the source holds several entries; their conditions need not be identical. Equal values may be shown once. Read-outs that look alike come from different tables or passages of the source.

T1: marmoset monkey IL4Rα-his protein (marmoset monkey)
T1 construct: Custom made by Sino biological; no cleavage site stated; also called cal-IL4Rα-his; Cal-IL4Rα
T1 chain: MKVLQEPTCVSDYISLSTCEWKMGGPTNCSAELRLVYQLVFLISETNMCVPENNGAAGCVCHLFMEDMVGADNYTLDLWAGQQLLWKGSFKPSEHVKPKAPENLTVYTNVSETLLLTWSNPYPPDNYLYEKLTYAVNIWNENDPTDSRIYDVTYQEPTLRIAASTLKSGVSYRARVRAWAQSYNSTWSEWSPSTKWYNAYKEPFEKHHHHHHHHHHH


Experiments:
[1] = target: T2, human IL4Rα expressed on 293F-IL4Rα cells (human, UniProt P24394 26-825); assay: flow cytometry on 293F-IL4Rα cells
T2 construct: whole, on cells; also called cell surface human IL4Rα

[2] = target: T3, cynomolgus monkey IL4Rα-his protein (cynomolgus monkey, UniProt A0A2K5V580 33-239); assay: indirect ELISA on coated cynomolgus IL4Rα-his
T3 construct: Bought protein; also called Cynomolgus IL4Rα; Cyno-IL4Rα-his; not shown: his tag

[3] = target: T2, human IL4Rα expressed on 293F-IL4Rα …; assay: flow cytometry on 293F-IL4Rα cells, blocked ligand biotin human IL4
[4] = target: T4, recombinant human IL4Rα-his protein (in house made) (human, UniProt P24394 26-232, limits assumed); assay: competitive ELISA: coated human IL4Rα-his, blocked ligand biotin human IL4
T4 construct: also called Human IL4Ra-his

[5] = target: T4, recombinant human IL4Rα-his protein (in …); assay: capture ELISA: antibody captured on anti-IgG Fc plate, biotin human IL4Rα-his detected
[6] = target: human IL4Rα expressed on HEK293T-IL4Rα-STAT6-STAT6LUC-LB2 cells (human, UniProt P24394 26-825); assay: cell-based or functional assay
[7] = target: T4, recombinant human IL4Rα-his protein (in …); assay: SPR (Biacore), antibody captured, IL4Rα-his flowed
[8] = target: T4, recombinant human IL4Rα-his protein (in …); assay: SPR (Biacore), antibody captured, IL4Rα-his flowed; remark: listed apart in the source
[9] = target: T4, recombinant human IL4Rα-his protein (in …); assay: competitive ELISA: antibody mixed with biotin human IL4Rα-his, competitor plate-coated Benchmark
[10] = target: T1, marmoset monkey IL4Rα-his protein; assay: indirect ELISA on coated cal-IL4Rα-his
[11] = target: T2, human IL4Rα expressed on 293F-IL4Rα …; assay: flow cytometry on 293F-IL4Rα cells; remark: listed apart in the source
[12] = target: T4, recombinant human IL4Rα-his protein (in …); assay: SPR (Biacore), antibody captured, IL4Rα-his flowed; remark: listed apart in the source
[13] = target: T3, cynomolgus monkey IL4Rα-his protein; assay: indirect ELISA on coated cynomolgus IL4Rα-his; remark: listed apart in the source
[14] = target: T2, human IL4Rα expressed on 293F-IL4Rα …; assay: flow cytometry on 293F-IL4Rα cells, blocked ligand biotin human IL4; remark: listed apart in the source
[15] = target: T4, recombinant human IL4Rα-his protein (in …); assay: competitive ELISA: coated human IL4Rα-his, blocked ligand biotin human IL4; remark: listed apart in the source
[16] = target: T4, recombinant human IL4Rα-his protein (in …); assay: capture ELISA: antibody captured on anti-IgG Fc plate, biotin human IL4Rα-his detected; remark: listed apart in the source
[17] = target: T4, recombinant human IL4Rα-his protein (in …); assay: competitive ELISA: antibody mixed with biotin human IL4Rα-his, competitor plate-coated Benchmark; remark: listed apart in the source

EC50 [1] [nM]	EC50 [2] [nM]	IC50 [3] [nM]	IC50 [4] [nM]	EC50 [5] [nM]	Inhibition on IL4 induced STAT6 phosphorylation (IC50, nM) [6] [nM]	Inhibition on IL13 induced STAT6 phosphorylation (IC50, nM) [6] [nM]	Kd [7]	koff [7]	kon [7]	Kd [8] [nM]	IC50 [9] [nM]	EC50 [10] [nM]	EC50 [11] [nM]	kon [12]	EC50 [13] [nM]	IC50 [14] [nM]	IC50 [15] [nM]	EC50 [16] [nM]	IC50 [17] [nM]	Binder
0.325	0.5	0.5	1	0.213	–	–	–	–	–	–	–	–	–	–	–	–	–	–	–	mouse antibody B8G11F2B7G5E8 (antibody, V domains shown, Mouse hybridoma mAb; also called Mouse B8G11F2B7G5E8; mAb B8G11F2B7G5E8) VH: EVQLQQSGADLVRPGASVKLSCTASGFNIKDTYMHWVKQRPEQGLEWVGRIDPTNGYTIYASKFQGKATITADTSSNTAYMQLSSLTSGDTAVYHCVSRRPWFAYWGQGTLVTVSA VL: DILMTQTPLSLPVSLGAQASISCRSSQSIVHSNGNTYLEWYLQKPGQSPKLLIYKVTNRFSGVPDRFSGSGSGTDFTLKISRVEAEDLGIYYCFQGSHVPYTFGGGTKLEIK
0.442	1.06	0.364	1.42	0.319	0.45	0.5	3.68 nM and 2.69 nM	0.00112 s⁻¹ and 0.00143 s⁻¹	306000 M⁻¹ s⁻¹ and 529000 M⁻¹ s⁻¹	3.23	1.52	–	–	–	–	–	–	–	–	chimeric antibody B8G11F2B7G5E8 (antibody, human IgG4 S228P, kappa, V domains shown, Mouse variable domains on human IgG4/kappa; also called Chimeric B8G11F2B7G5E8; chB8G11F2B7G5E8) VH: EVQLQQSGADLVRPGASVKLSCTASGFNIKDTYMHWVKQRPEQGLEWVGRIDPTNGYTIYASKFQGKATITADTSSNTAYMQLSSLTSGDTAVYHCVSRRPWFAYWGQGTLVTVSA VL: DILMTQTPLSLPVSLGAQASISCRSSQSIVHSNGNTYLEWYLQKPGQSPKLLIYKVTNRFSGVPDRFSGSGSGTDFTLKISRVEAEDLGIYYCFQGSHVPYTFGGGTKLEIKR
–	–	–	–	–	–	–	–	–	–	–	–	0.574	–	–	–	–	–	–	–	mouse antibody C2C1A1A1 (antibody, V domains shown, Mouse hybridoma mAb; also called Mouse C2C1A1A1) VH: EVQLVESGGGLVQPGGSLKLSCAASGFTFSTYGMSWVRQTPDKRLELVATINSNGGSTSYPDSVKGRFTISRDNAKNTLYLQMSSLKSEDTAMFYCARFFRFRNAMDYWGQGTSVTVSS VL: DIQMTQSPASLSASVGETVTITCRTSENIYSYLAWYQQKQGKSPQFLVYNAKTLAEGVPSRFSGSGSGTQFSLNINSLQSEDFGSYYCQHYYGPPTWTFGGGTKLEIK
–	–	–	–	–	0.26	0.39	–	–	–	0.388	–	0.623	0.326	329000 M⁻¹ s⁻¹ and 364000 M⁻¹ s⁻¹	0.603	0.482	2.46	0.0541	0.172	chimeric antibody C2C1A1A1 (antibody, human IgG4 S228P, kappa, V domains shown, Mouse variable domains on human IgG4/kappa; also called Chimeric C2C1A1A1; chC2C1A1A1) VH: EVQLVESGGGLVQPGGSLKLSCAASGFTFSTYGMSWVRQTPDKRLELVATINSNGGSTSYPDSVKGRFTISRDNAKNTLYLQMSSLKSEDTAMFYCARFFRFRNAMDYWGQGTSVTVSS VL: DIQMTQSPASLSASVGETVTITCRTSENIYSYLAWYQQKQGKSPQFLVYNAKTLAEGVPSRFSGSGSGTQFSLNINSLQSEDFGSYYCQHYYGPPTWTFGGGTKLEIKR
